± gives the standard deviation of the averaged measurements.
B1: library; a variant is named by its letters at N, in order (parent)
chain: GCUGUCACCGGUGCUUGGUACGUUAUAUUCAGCCGGUCUGAUGAGUCUNNNNNNAGACGAAACAGC

Assays:
(6R,S)-folinic acid [1] = variants of: B1; experiment: normalized RNA/DNA level without ligand (relative to sTRSVctl = 100) (log10 (% of sTRSVctl)); HEK293T overexpressing SLC46A1; higher = less ribozyme self-cleavage, higher mRNA level; conditions: without (6R,S)-folinic acid; ligand present: no
Procedure, shortened: (§1)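 HEK293T cells received ligand, where used, 1 h before being transfected with 4 µg per 6-well well of library plasmids encoding reporter-linked ribozyme switches. After 72 h, RNA was extracted with EDTA and sequenced. RNA level was derived from RNA reads per DNA read, normalized to a spiked-in non-cleaving sequence or the top sequences, then scaled and log-transformed. Values were ×100 then log10, the top set was 25 sequences, and the minimum was 100 DNA reads.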

(6R,S)-folinic acid [2] = variants of: B1; experiment: normalized RNA/DNA level with ligand (relative to sTRSVctl = 100) (log10 (% of sTRSVctl)); HEK293T overexpressing SLC46A1; ligand concentration (+) RNA-Seq: 6 mM; higher = less ribozyme self-cleavage, higher mRNA level; conditions: with (6R,S)-folinic acid; ligand present: yes
Procedure, shortened: as §1

Row | Variant | normalized RNA/DNA level without ligand (log10) ((6R,S)-folinic acid [1]) | normalized RNA/DNA level with ligand (log10) ((6R,S)-folinic acid [2])
1 | GCUGUCACCGGUGCUUGGUACGUUAUAUUCAGCCGGUCUGAUGAGUCUGCGGACAGACGAAACAGC [GCGGAC] | 1.972 ± 0.0066 | 2.05 ± 0.029
2 | GCUGUCACCGGUGCUUGGUACGUUAUAUUCAGCCGGUCUGAUGAGUCUACGGAGAGACGAAACAGC [ACGGAG] | 1.839 ± 0.0062 | 2.029 ± 0.014
3 | GCUGUCACCGGUGCUUGGUACGUUAUAUUCAGCCGGUCUGAUGAGUCUACGGACAGACGAAACAGC [ACGGAC] | 2.018 ± 0.015 | 2.01 ± 0.03
4 | GCUGUCACCGGUGCUUGGUACGUUAUAUUCAGCCGGUCUGAUGAGUCUCCGGAUAGACGAAACAGC [CCGGAU] | 2.017 ± 0.0056 | 2.05 ± 0.059
5 | GCUGUCACCGGUGCUUGGUACGUUAUAUUCAGCCGGUCUGAUGAGUCUCCGGAGAGACGAAACAGC [CCGGAG] | 1.931 ± 0.0037 | 2.024 ± 0.011
6 | GCUGUCACCGGUGCUUGGUACGUUAUAUUCAGCCGGUCUGAUGAGUCUCCGGUCAGACGAAACAGC [CCGGUC] | 2.0714 ± 0.0011 | 2.03 ± 0.069
7 | GCUGUCACCGGUGCUUGGUACGUUAUAUUCAGCCGGUCUGAUGAGUCUCCGGUAAGACGAAACAGC [CCGGUA] | 2.01 ± 0.038 | 2.009 ± 0.011
8 | GCUGUCACCGGUGCUUGGUACGUUAUAUUCAGCCGGUCUGAUGAGUCUUCGGGCAGACGAAACAGC [UCGGGC] | 2.06 ± 0.021 | 2.03 ± 0.055
9 | GCUGUCACCGGUGCUUGGUACGUUAUAUUCAGCCGGUCUGAUGAGUCUUCGGGAAGACGAAACAGC [UCGGGA] | 1.937 ± 0.012 | 2.03 ± 0.056
10 | GCUGUCACCGGUGCUUGGUACGUUAUAUUCAGCCGGUCUGAUGAGUCUUCGGGGAGACGAAACAGC [UCGGGG] | 1.86 ± 0.027 | 1.99 ± 0.039
11 | GCUGUCACCGGUGCUUGGUACGUUAUAUUCAGCCGGUCUGAUGAGUCUUCGGGUAGACGAAACAGC [UCGGGU] | 1.9958 ± 0.001 | 2.03 ± 0.038
12 | GCUGUCACCGGUGCUUGGUACGUUAUAUUCAGCCGGUCUGAUGAGUCUACGGUAAGACGAAACAGC [ACGGUA] | 1.9058 ± 0.0011 | 1.95 ± 0.029
13 | GCUGUCACCGGUGCUUGGUACGUUAUAUUCAGCCGGUCUGAUGAGUCUCCGGCAAGACGAAACAGC [CCGGCA] | 2.108 ± 0.021 | 2.049 ± 0.016
14 | GCUGUCACCGGUGCUUGGUACGUUAUAUUCAGCCGGUCUGAUGAGUCUCCGGCUAGACGAAACAGC [CCGGCU] | 2.08 ± 0.029 | 2.051 ± 0.013
15 | GCUGUCACCGGUGCUUGGUACGUUAUAUUCAGCCGGUCUGAUGAGUCUCCGGCGAGACGAAACAGC [CCGGCG] | 2.05 ± 0.025 | 2.05 ± 0.038
16 | GCUGUCACCGGUGCUUGGUACGUUAUAUUCAGCCGGUCUGAUGAGUCUCCGGCCAGACGAAACAGC [CCGGCC] | 2.094 ± 0.013 | 2.03 ± 0.013
17 | GCUGUCACCGGUGCUUGGUACGUUAUAUUCAGCCGGUCUGAUGAGUCUUCGGACAGACGAAACAGC [UCGGAC] | 2.048 ± 0.0021 | 2.0514 ± 0.00022
18 | GCUGUCACCGGUGCUUGGUACGUUAUAUUCAGCCGGUCUGAUGAGUCUGCGGCUAGACGAAACAGC [GCGGCU] | 2.0832 ± 0.0008 | 2.05 ± 0.031
19 | GCUGUCACCGGUGCUUGGUACGUUAUAUUCAGCCGGUCUGAUGAGUCUGCGGCAAGACGAAACAGC [GCGGCA] | 2.071 ± 0.0038 | 2.07 ± 0.048
20 | GCUGUCACCGGUGCUUGGUACGUUAUAUUCAGCCGGUCUGAUGAGUCUGCGGCCAGACGAAACAGC [GCGGCC] | 2.072 ± 0.011 | 2.077 ± 0.02
21 | GCUGUCACCGGUGCUUGGUACGUUAUAUUCAGCCGGUCUGAUGAGUCUGCGGCGAGACGAAACAGC [GCGGCG] | 2.07 ± 0.023 | 2.1 ± 0.061

From the supplement of paper PMC6757056
